Laboratory results reported in article PMC9482650, “Quantitative fragmentomics allow affinity mapping of interactomes” (Nature Communications, 2022).

T1: ARHGEF11, O15085
T1 sequence (O15085 42-136, limits assumed, looked up): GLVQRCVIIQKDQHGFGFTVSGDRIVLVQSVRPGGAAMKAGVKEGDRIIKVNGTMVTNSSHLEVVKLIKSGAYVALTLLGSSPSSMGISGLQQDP

T2: RADIL, Q96JH8
T2 sequence (Q96JH8 971-1071, limits assumed, looked up): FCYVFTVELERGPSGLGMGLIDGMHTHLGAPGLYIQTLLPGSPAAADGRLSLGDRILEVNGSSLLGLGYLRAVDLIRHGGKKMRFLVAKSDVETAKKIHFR

T3: DLG3_3, Q92796
T3 sequence (Q92796 374-475, limits assumed, looked up): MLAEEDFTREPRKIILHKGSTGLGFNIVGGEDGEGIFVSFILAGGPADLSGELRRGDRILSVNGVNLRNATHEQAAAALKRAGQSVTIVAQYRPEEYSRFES

T4: LNX2_2, Q8N448
T4 sequence (Q8N448 334-432, limits assumed, looked up): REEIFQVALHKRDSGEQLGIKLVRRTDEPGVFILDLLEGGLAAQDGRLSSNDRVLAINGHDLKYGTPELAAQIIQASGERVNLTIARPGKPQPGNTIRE

T5: NHERF3_1, Q5T2W1
T5 sequence (Q5T2W1 4-100, limits assumed, looked up): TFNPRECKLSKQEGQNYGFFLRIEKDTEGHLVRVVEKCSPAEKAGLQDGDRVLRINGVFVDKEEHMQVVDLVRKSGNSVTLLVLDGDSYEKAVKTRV

T6: GRIP1_4, Q9Y3R0
T6 sequence (Q9Y3R0 467-571, limits assumed, looked up): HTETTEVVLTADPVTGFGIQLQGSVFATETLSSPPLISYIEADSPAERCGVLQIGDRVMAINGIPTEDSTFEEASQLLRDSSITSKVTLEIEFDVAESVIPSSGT

T7: LNX2_3, Q8N448
T7 sequence (Q8N448 463-564, limits assumed, looked up): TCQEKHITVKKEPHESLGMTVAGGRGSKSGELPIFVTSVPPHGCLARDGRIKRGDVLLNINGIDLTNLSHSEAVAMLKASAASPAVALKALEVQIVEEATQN

T8: TIAM2, Q8IVF5
T8 sequence (Q8IVF5 885-986, limits assumed, looked up): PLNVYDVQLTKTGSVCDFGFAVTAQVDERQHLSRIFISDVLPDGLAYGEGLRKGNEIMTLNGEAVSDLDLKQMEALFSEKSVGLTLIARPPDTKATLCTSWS

T9: MPP2, Q14168
T9 sequence (Q14168 180-250, limits assumed, looked up): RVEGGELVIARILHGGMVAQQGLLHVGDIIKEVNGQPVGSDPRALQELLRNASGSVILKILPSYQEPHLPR

T10: LIN7B, Q9HAP6
T10 sequence (Q9HAP6 88-185, limits assumed, looked up): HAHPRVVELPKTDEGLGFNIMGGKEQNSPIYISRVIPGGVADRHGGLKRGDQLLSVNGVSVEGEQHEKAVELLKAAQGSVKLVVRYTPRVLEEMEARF

T11: GRIP1_5, Q9Y3R0
T11 sequence (Q9Y3R0 568-668, limits assumed, looked up): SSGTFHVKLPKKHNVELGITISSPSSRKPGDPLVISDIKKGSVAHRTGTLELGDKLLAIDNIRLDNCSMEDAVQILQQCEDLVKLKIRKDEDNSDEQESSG

T12: DVL3, Q92997
T12 sequence (Q92997 244-331, limits assumed, looked up): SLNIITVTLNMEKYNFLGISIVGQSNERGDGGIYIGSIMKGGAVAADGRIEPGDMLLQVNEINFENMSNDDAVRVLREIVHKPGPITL

B1: KCNB1, Q14721 (peptide)
chain: AHGSTRDQSI
B2: IGSF5, Q9NSI5 (peptide)
chain: PEKVSNTTVV

target: T1, ARHGEF11, O15085; assay: holdup assay; set-up: key: below the threshold = too weak to quantify, mostly under pKd 3.1 to 4; settings: plain residues with an end cap or a label only (N-terminal biotin on a linker: ado-ado)

Binder	pKd
B1	4.4
B2	4.24

target: T2, RADIL, Q96JH8; assay: holdup assay; set-up: key: below the threshold = too weak to quantify, mostly under pKd 3.1 to 4; settings: plain residues with an end cap or a label only (N-terminal biotin on a linker: ado-ado)

Binder	pKd
B1	below the threshold
B2	4.3

target: Inadl_2, Q8NI35; assay: holdup assay; set-up: key: below the threshold = too weak to quantify, mostly under pKd 3.1 to 4; settings: plain residues with an end cap or a label only (N-terminal biotin on a linker: ado-ado)
Sequence (Q8NI35 238-335): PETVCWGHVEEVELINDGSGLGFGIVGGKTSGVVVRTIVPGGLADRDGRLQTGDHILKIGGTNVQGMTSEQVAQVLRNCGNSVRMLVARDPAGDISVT

Binder	pKd
B1	below the threshold
B2	below the threshold

target: PARD3_3, Q8TEW0; assay: holdup assay; set-up: key: below the threshold = too weak to quantify, mostly under pKd 3.1 to 4; settings: plain residues with an end cap or a label only (N-terminal biotin on a linker: ado-ado)
Sequence (Q8TEW0 582-685): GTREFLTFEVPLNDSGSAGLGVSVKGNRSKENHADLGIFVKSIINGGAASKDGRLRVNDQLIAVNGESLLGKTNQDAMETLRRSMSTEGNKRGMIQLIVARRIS

Binder	pKd
B1	below the threshold
B2	below the threshold

target: T3, DLG3_3, Q92796; assay: holdup assay; set-up: key: below the threshold = too weak to quantify, mostly under pKd 3.1 to 4; settings: plain residues with an end cap or a label only (N-terminal biotin on a linker: ado-ado)

Binder	pKd
B1	3.75
B2	below the threshold

target: T4, LNX2_2, Q8N448; assay: holdup assay; set-up: key: below the threshold = too weak to quantify, mostly under pKd 3.1 to 4; settings: plain residues with an end cap or a label only (N-terminal biotin on a linker: ado-ado)

Binder	pKd
B1	below the threshold
B2	5.14

target: MAGI2_2, Q86UL8; assay: holdup assay; set-up: key: below the threshold = too weak to quantify, mostly under pKd 3.1 to 4; settings: plain residues with an end cap or a label only (N-terminal biotin on a linker: ado-ado)
Sequence (Q86UL8 410-522): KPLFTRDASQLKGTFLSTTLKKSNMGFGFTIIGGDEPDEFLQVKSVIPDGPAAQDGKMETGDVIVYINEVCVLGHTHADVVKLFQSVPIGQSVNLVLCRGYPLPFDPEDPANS

Binder	pKd
B1	below the threshold
B2	4.13

target: NOS1, P29475; assay: holdup assay; set-up: key: below the threshold = too weak to quantify, mostly under pKd 3.1 to 4; settings: plain residues with an end cap or a label only (N-terminal biotin on a linker: ado-ado)
Sequence (P29475 9-101): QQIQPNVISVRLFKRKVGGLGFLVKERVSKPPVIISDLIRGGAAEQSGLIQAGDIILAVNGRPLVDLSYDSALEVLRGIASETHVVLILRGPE

Binder	pKd
B1	below the threshold
B2	3.64

target: IL16_3, Q14005; assay: holdup assay; set-up: key: below the threshold = too weak to quantify, mostly under pKd 3.1 to 4; settings: plain residues with an end cap or a label only (N-terminal biotin on a linker: ado-ado)
Sequence (Q14005 1107-1207): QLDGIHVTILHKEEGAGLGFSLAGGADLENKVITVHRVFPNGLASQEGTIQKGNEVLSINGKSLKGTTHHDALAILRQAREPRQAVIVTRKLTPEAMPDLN

Binder	pKd
B1	below the threshold
B2	below the threshold

target: FRMPD4, Q14CM0; assay: holdup assay; set-up: key: below the threshold = too weak to quantify, mostly under pKd 3.1 to 4; settings: plain residues with an end cap or a label only (N-terminal biotin on a linker: ado-ado)
Sequence (Q14CM0 67-160): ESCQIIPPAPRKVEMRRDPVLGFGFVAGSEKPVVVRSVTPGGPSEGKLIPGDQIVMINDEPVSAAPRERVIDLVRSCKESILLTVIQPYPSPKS

Binder	pKd
B1	below the threshold
B2	below the threshold

target: GRIP2_5, Q9C0E4; assay: holdup assay; set-up: key: below the threshold = too weak to quantify, mostly under pKd 3.1 to 4; settings: plain residues with an end cap or a label only (N-terminal biotin on a linker: ado-ado)
Sequence (Q9C0E4 544-642): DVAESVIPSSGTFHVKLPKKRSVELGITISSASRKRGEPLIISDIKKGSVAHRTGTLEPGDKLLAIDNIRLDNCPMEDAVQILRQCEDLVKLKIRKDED

Binder	pKd
B1	below the threshold
B2	below the threshold

target: T5, NHERF3_1, Q5T2W1; assay: holdup assay; set-up: key: below the threshold = too weak to quantify, mostly under pKd 3.1 to 4; settings: plain residues with an end cap or a label only (N-terminal biotin on a linker: ado-ado)

Binder	pKd
B1	below the threshold
B2	below the threshold

target: MAST2, Q6P0Q8; assay: holdup assay; set-up: key: below the threshold = too weak to quantify, mostly under pKd 3.1 to 4; settings: plain residues with an end cap or a label only (N-terminal biotin on a linker: ado-ado)
Sequence (Q6P0Q8 1099-1202): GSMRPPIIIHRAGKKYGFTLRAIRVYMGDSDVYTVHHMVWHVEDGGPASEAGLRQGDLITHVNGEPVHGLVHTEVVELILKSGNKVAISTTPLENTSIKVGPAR

Binder	pKd
B1	below the threshold
B2	4.99

target: T6, GRIP1_4, Q9Y3R0; assay: holdup assay; set-up: key: below the threshold = too weak to quantify, mostly under pKd 3.1 to 4; settings: plain residues with an end cap or a label only (N-terminal biotin on a linker: ado-ado)

Binder	pKd
B1	below the threshold
B2	below the threshold

target: T7, LNX2_3, Q8N448; assay: holdup assay; set-up: key: below the threshold = too weak to quantify, mostly under pKd 3.1 to 4; settings: plain residues with an end cap or a label only (N-terminal biotin on a linker: ado-ado)

Binder	pKd
B1	below the threshold
B2	below the threshold

target: T8, TIAM2, Q8IVF5; assay: holdup assay; set-up: key: below the threshold = too weak to quantify, mostly under pKd 3.1 to 4; settings: plain residues with an end cap or a label only (N-terminal biotin on a linker: ado-ado)

Binder	pKd
B1	4.05
B2	4.04

target: LAP2, Q96RT1; assay: holdup assay; set-up: key: below the threshold = too weak to quantify, mostly under pKd 3.1 to 4; settings: plain residues with an end cap or a label only (N-terminal biotin on a linker: ado-ado)
Sequence (Q96RT1 other isoform, or with tags, fused parts or gaps): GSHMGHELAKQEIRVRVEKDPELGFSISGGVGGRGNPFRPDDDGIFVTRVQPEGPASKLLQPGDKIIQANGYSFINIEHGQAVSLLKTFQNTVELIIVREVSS

Binder	pKd
B1	below the threshold
B2	below the threshold

target: DLG1_2, Q12959; assay: holdup assay; set-up: key: below the threshold = too weak to quantify, mostly under pKd 3.1 to 4; settings: plain residues with an end cap or a label only (N-terminal biotin on a linker: ado-ado)
Sequence (Q12959 314-412): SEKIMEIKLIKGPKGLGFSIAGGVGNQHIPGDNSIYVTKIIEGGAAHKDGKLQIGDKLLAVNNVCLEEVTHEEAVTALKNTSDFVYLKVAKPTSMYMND

Binder	pKd
B1	below the threshold
B2	4.64

target: T9, MPP2, Q14168; assay: holdup assay; set-up: key: below the threshold = too weak to quantify, mostly under pKd 3.1 to 4; settings: plain residues with an end cap or a label only (N-terminal biotin on a linker: ado-ado)

Binder	pKd
B1	below the threshold
B2	below the threshold

target: T10, LIN7B, Q9HAP6; assay: holdup assay; set-up: key: below the threshold = too weak to quantify, mostly under pKd 3.1 to 4; settings: plain residues with an end cap or a label only (N-terminal biotin on a linker: ado-ado)

Binder	pKd
B1	3.68
B2	3.69

target: T11, GRIP1_5, Q9Y3R0; assay: holdup assay; set-up: key: below the threshold = too weak to quantify, mostly under pKd 3.1 to 4; settings: plain residues with an end cap or a label only (N-terminal biotin on a linker: ado-ado)

Binder	pKd
B1	3.54
B2	below the threshold

target: GIPC2, Q8TF65; assay: holdup assay; set-up: key: below the threshold = too weak to quantify, mostly under pKd 3.1 to 4; settings: plain residues with an end cap or a label only (N-terminal biotin on a linker: ado-ado)
Sequence (Q8TF65 112-203): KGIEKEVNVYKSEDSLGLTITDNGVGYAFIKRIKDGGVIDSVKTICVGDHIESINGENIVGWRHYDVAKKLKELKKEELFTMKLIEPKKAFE

Binder	pKd
B1	below the threshold
B2	below the threshold

target: T12, DVL3, Q92997; assay: holdup assay; set-up: key: below the threshold = too weak to quantify, mostly under pKd 3.1 to 4; settings: plain residues with an end cap or a label only (N-terminal biotin on a linker: ado-ado)

Binder	pKd
B1	3.66
B2	below the threshold

target: TJP2_1, Q9UDY2; assay: holdup assay; set-up: key: below the threshold = too weak to quantify, mostly under pKd 3.1 to 4; settings: plain residues with an end cap or a label only (N-terminal biotin on a linker: ado-ado)
Sequence (Q9UDY2 24-128): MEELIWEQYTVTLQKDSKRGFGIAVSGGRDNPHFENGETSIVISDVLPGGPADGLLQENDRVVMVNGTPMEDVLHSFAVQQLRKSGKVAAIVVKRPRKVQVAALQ

Binder	pKd
B1	below the threshold
B2	below the threshold

target: IL16_4, Q14005; assay: holdup assay; set-up: key: below the threshold = too weak to quantify, mostly under pKd 3.1 to 4; settings: plain residues with an end cap or a label only (N-terminal biotin on a linker: ado-ado)
Sequence (Q14005 1229-1329): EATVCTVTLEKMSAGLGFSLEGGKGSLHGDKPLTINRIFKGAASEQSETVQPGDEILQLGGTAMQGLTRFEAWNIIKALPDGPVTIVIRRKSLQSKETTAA

Binder	pKd
B1	below the threshold
B2	3.51

target: SNX27, Q96L92; assay: holdup assay; set-up: key: below the threshold = too weak to quantify, mostly under pKd 3.1 to 4; settings: plain residues with an end cap or a label only (N-terminal biotin on a linker: ado-ado)

Binder	pKd
B1	below the threshold
B2	4.51
